Experimental data: US12679878B2, “CRF2 receptor agonists and their use in therapy” (SANOFI, priority 2020, dated 2026)
Starred links: 1 amine or outer side, 2 acyl side, 3 side chain; linkers in the order of their positions; H or OH if unused. Non-standard residues stand in square brackets, D forms with d. Residues, ends and D or L forms follow the SMILES beside them. Groups on a side chain read outwards from the residue. No end group written: not given here. *: point of attachment. C18 diacid = O=C(O)CCCCCCCCCCCCCCCCC(=O)*; γGlu = O=C(O)[C@H](CCC(=O)[*:2])N[*:1]; Palmitoyl = CCCCCCCCCCCCCCCC(=O)*; AEEA = NCCOCCOCC(=O)O; Aib = CC(C)(N)C(=O)O

T1: human CRF2α receptor (Homo sapiens, UniProt Q13324)
T1 construct: expressed in transfected cells; host or cells: TeloHEAC
T1 sequence (Q13324 1-411): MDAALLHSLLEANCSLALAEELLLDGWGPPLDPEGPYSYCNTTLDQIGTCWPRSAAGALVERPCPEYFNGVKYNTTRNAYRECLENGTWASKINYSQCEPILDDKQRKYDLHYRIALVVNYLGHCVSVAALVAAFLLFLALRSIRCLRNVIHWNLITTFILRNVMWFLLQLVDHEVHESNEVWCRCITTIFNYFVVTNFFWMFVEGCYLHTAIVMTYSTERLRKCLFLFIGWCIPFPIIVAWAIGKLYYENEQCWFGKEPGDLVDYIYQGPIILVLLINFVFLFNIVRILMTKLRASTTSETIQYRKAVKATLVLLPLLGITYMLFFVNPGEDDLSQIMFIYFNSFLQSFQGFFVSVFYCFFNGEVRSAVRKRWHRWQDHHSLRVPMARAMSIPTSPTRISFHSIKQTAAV


How the values were obtained:
human CRF2α receptor = target: T1, human CRF2α receptor; experiment: cAMP agonism at human CRF2 α receptor in TeloHEAC cells (Example 7); type: cell-based; details: cAMP HTRF, TeloHEAC cells stably expressing human CRF2 α, 0% HSA; read-out: EC50 [nM], 0% HSA
Procedure: Agonism of compounds for human corticotropin-releasing factor 2α (CRF2 α receptor) was determined by functional assays measuring CAMP response of a TeloHEAC cell line stably expressing human CRF2 α receptor.
Cells were grown in a T175 culture flask placed at 37° C. to near confluence in medium (DMEM/10% FBS) and collected in 2 ml vials in cell culture medium containing 10% DMSO in a concentration of 10-50 million cells/ml. Each vial contained 1.8 ml cells. The vials were slowly frozen to −80° C. in isopropanol and then transferred in liquid nitrogen for storage. Prior to use, frozen cells were thawed quickly at 37° C. and washed (5 min at 900 rpm) with 20 ml cell buffer (1×HBSS; 20 mM HEPES; 0% or 0.1% HSA). Cells were resuspended in assay buffer (cell buffer plus 2 mM IBMX) and adjusted to a cell density of 1 million cells/ml. For measurement, 5 μl cells (final […]) and 5 μL of test compound were added to a 384-well plate, followed by incubation for 30 minutes at room temperature.
The CAMP content of cells was determined using a kit from Cisbio Corp. (cat. no. 62AM4PEC) based on HTRF (Homogenous Time Resolved Fluorescence). After addition of HTRF reagents diluted in lysis buffer (kit components), the plates were incubated for 1 h, followed by measurement of the fluorescence ratio at 665/620 nm. The percent activity value (E %) was calculated by setting 1000 nM of urocortin 2 (UCN2) as 100%. The in vitro potency of the compounds was quantified by determining the concentrations that caused 50% activation of maximal response (EC50).

[1] = target: human corticotropin-releasing factor 2α (CRF2 α receptor) (human), Q13324; experiment: cell-based or functional assay

Row | EC50 (human CRF2α receptor) [nM] | EC50 [nM], 0% HSA [1] [nM] | EC50 [nM], 0.1% HSA [1] [nM] | Molecule
1 | 0.2 | – | – | CCCCCCCCCCCCCCCC(=O)N[C@@H](CCC(=O)NCCCC[C@H](NC(=O)[C@H](CC(C)C)NC(=O)[C@H](CCCCN)NC(=O)[C@@H](NC(=O)[C@@H]1CCCN1C(=O)[C@H](NC(=O)[C@H](CC(=O)O)NC(=O)[C@H](CC(C)C)NC(=O)[C@H](CO)NC(=O)[C@H](CC(C)C)NC(=O)[C@@H](NC(=O)[C@@H](N)[C@@H](C)CC)C(C)C)C(C)C)[C@@H](C)O)C(=O)N[C@@H](CCC(N)=O)C(=O)N[C@@H](CCCCN)C(=O)N[C@@H](CC(C)C)C(=O)N[C@@H](CC(C)C)C(=O)N[C@@H](CCCCN)C(=O)N[C@@H](CCC(N)=O)C(=O)N[C@@H](CCC(=O)O)C(=O)N[C@@H](CCCNC(=N)N)C(=O)N[C@@H](CCC(N)=O)C(=O)N[C@@H](CCCNC(=N)N)C(=O)N[C@@H](CCCCN)C(=O)N[C@@H](CCC(=O)O)C(=O)N[C@@H](CCCNC(=N)N)C(=O)N[C@@H](CCC(=O)O)C(=O)N[C@@H](CCC(N)=O)C(=O)N[C@@H](C)C(=O)N[C@@H](CCC(=O)O)C(=O)N[C@@H](CCCCN)C(=O)N[C@@H](CC(N)=O)C(=O)N[C@H](C(=O)N[C@@H](CCCNC(=N)N)C(=O)N[C@H](C(=O)N[C@@H](CC(C)C)C(=O)N[C@@H](CCC(=O)O)C(=O)N[C@@H](CCCNC(=N)N)C(=O)N[C@H](C(N)=O)C(C)C)[C@@H](C)CC)[C@@H](C)O)C(=O)O [compound 33] (H-IVLSLD[dV]PTKLK([γGlu-Palmitoyl])QKLLKQERQRKEREQAEKNTRILERV-NH2)
2 | – | 0.07 | 2.99 | IVLSLD[dV]PIGLK([AEEA-AEEA-γGlu-C18 diacid])QILLKQERQKK[Aib]REQAETNKRILERV-NH2 (N-terminus assumed; SMILES CC[C@H](C)[C@H](N)C(=O)N[C@H](C(=O)N[C@@H](CC(C)C)C(=O)N[C@@H](CO)C(=O)N[C@@H](CC(C)C)C(=O)N[C@@H](CC(=O)O)C(=O)N[C@@H](C(=O)N1CCC[C@H]1C(=O)N[C@H](C(=O)NCC(=O)N[C@@H](CC(C)C)C(=O)N[C@@H](CCCCNC(=O)COCCOCCNC(=O)COCCOCCNC(=O)CC[C@H](NC(=O)CCCCCCCCCCCCCCCCC(=O)O)C(=O)O)C(=O)N[C@@H](CCC(N)=O)C(=O)N[C@H](C(=O)N[C@@H](CC(C)C)C(=O)N[C@@H](CC(C)C)C(=O)N[C@@H](CCCCN)C(=O)N[C@@H](CCC(N)=O)C(=O)N[C@@H](CCC(=O)O)C(=O)N[C@@H](CCCNC(=N)N)C(=O)N[C@@H](CCC(N)=O)C(=O)N[C@@H](CCCCN)C(=O)N[C@@H](CCCCN)C(=O)NC(C)(C)C(=O)N[C@@H](CCCNC(=N)N)C(=O)N[C@@H](CCC(=O)O)C(=O)N[C@@H](CCC(N)=O)C(=O)N[C@@H](C)C(=O)N[C@@H](CCC(=O)O)C(=O)N[C@H](C(=O)N[C@@H](CC(N)=O)C(=O)N[C@@H](CCCCN)C(=O)N[C@@H](CCCNC(=N)N)C(=O)N[C@H](C(=O)N[C@@H](CC(C)C)C(=O)N[C@@H](CCC(=O)O)C(=O)N[C@@H](CCCNC(=N)N)C(=O)N[C@H](C(N)=O)C(C)C)[C@@H](C)CC)[C@@H](C)O)[C@@H](C)CC)[C@@H](C)CC)C(C)C)C(C)C) [SEQ ID NO: 83]

The next lines start with the molecule.

Row | Molecule | EC50 (human CRF2α receptor) [nM] | EC50 [nM], 0% HSA [1] [nM] | EC50 [nM], 0.1% HSA [1] [nM]
3 | CCCCCCCCCCCCCCCC(=O)N[C@@H](CCC(=O)NCCCC[C@H](NC(=O)[C@H](CC(C)C)NC(=O)CNC(=O)[C@@H](NC(=O)[C@@H]1CCCN1C(=O)[C@@H](NC(=O)[C@H](CC(=O)O)NC(=O)[C@H](CC(C)C)NC(=O)[C@H](CO)NC(=O)[C@H](CC(C)C)NC(=O)[C@@H](NC(=O)[C@@H](N)[C@@H](C)CC)C(C)C)C(C)C)[C@@H](C)CC)C(=O)N[C@@H](CCC(N)=O)C(=O)N[C@H](C(=O)N[C@@H](CC(C)C)C(=O)N[C@@H](CC(C)C)C(=O)N[C@@H](CCC(=O)O)C(=O)N[C@@H](CCC(N)=O)C(=O)N[C@@H](CCC(=O)O)C(=O)N[C@@H](CCCCN)C(=O)N[C@@H](CCC(N)=O)C(=O)N[C@@H](CCC(=O)O)C(=O)N[C@@H](CCCCN)C(=O)N[C@@H](CCC(=O)O)C(=O)N[C@@H](CCCCN)C(=O)N[C@@H](CCC(N)=O)C(=O)N[C@@H](CCC(N)=O)C(=O)N[C@@H](C)C(=O)N[C@@H](CCC(=O)O)C(=O)N[C@H](C(=O)N[C@@H](CC(N)=O)C(=O)N[C@@H](C)C(=O)N[C@@H](CCC(N)=O)C(=O)N[C@H](C(=O)N[C@@H](CC(C)C)C(=O)N[C@@H](C)C(=O)N[C@@H](CCC(N)=O)C(=O)N[C@H](C(N)=O)C(C)C)[C@@H](C)CC)[C@@H](C)O)[C@@H](C)CC)C(=O)O [compound 1] (H-IVLSLDVPIGLK([γGlu-Palmitoyl])QILLEQEKQEKEKQQAETNAQILAQV-NH2; N-terminus assumed) | 0.01 | – | –
4 | CCCCCCCCCCCCCCCC(=O)N[C@@H](CCC(=O)NCCCC[C@H](NC(=O)[C@H](CC(C)C)NC(=O)[C@H](CCCCN)NC(=O)[C@@H](NC(=O)[C@@H]1CCCN1C(=O)[C@H](NC(=O)[C@H](CC(=O)O)NC(=O)[C@H](CC(C)C)NC(=O)[C@H](CO)NC(=O)[C@H](CC(C)C)NC(=O)[C@@H](NC(=O)[C@@H](N)[C@@H](C)CC)C(C)C)C(C)C)[C@@H](C)O)C(=O)N[C@@H](CCC(N)=O)C(=O)N[C@@H](CCCCN)C(=O)N[C@@H](CC(C)C)C(=O)N[C@@H](CC(C)C)C(=O)N[C@@H](CCCCN)C(=O)N[C@@H](CCC(N)=O)C(=O)N[C@@H](CCC(=O)O)C(=O)N[C@@H](CCCNC(=N)N)C(=O)N[C@@H](CCC(N)=O)C(=O)N[C@@H](CCCNC(=N)N)C(=O)N[C@@H](CCCCN)C(=O)N[C@@H](CCC(=O)O)C(=O)N[C@@H](CCCNC(=N)N)C(=O)N[C@@H](CCC(=O)O)C(=O)N[C@@H](CCC(N)=O)C(=O)N[C@@H](C)C(=O)N[C@@H](CCC(=O)O)C(=O)N[C@@H](CCCCN)C(=O)N[C@@H](CC(N)=O)C(=O)NC(C)(C)C(=O)N[C@@H](CCCNC(=N)N)C(=O)N[C@H](C(=O)N[C@@H](CC(C)C)C(=O)N[C@@H](CCC(=O)O)C(=O)N[C@@H](CCCNC(=N)N)C(=O)N[C@H](C(N)=O)C(C)C)[C@@H](C)CC)C(=O)O [compound 31] (H-IVLSLD[dV]PTKLK([γGlu-Palmitoyl])QKLLKQERQRKEREQAEKN[Aib]RILERV-NH2; N-terminus assumed) | 0.01 | – | –
5 | IVLSLDVPIKLK([AEEA-AEEA-γGlu-C18 diacid])QKLLEQEKQKKQREQAETNKQILAQV-NH2 (N-terminus assumed; SMILES CC[C@H](C)[C@H](N)C(=O)N[C@H](C(=O)N[C@@H](CC(C)C)C(=O)N[C@@H](CO)C(=O)N[C@@H](CC(C)C)C(=O)N[C@@H](CC(=O)O)C(=O)N[C@H](C(=O)N1CCC[C@H]1C(=O)N[C@H](C(=O)N[C@@H](CCCCN)C(=O)N[C@@H](CC(C)C)C(=O)N[C@@H](CCCCNC(=O)COCCOCCNC(=O)COCCOCCNC(=O)CC[C@H](NC(=O)CCCCCCCCCCCCCCCCC(=O)O)C(=O)O)C(=O)N[C@@H](CCC(N)=O)C(=O)N[C@@H](CCCCN)C(=O)N[C@@H](CC(C)C)C(=O)N[C@@H](CC(C)C)C(=O)N[C@@H](CCC(=O)O)C(=O)N[C@@H](CCC(N)=O)C(=O)N[C@@H](CCC(=O)O)C(=O)N[C@@H](CCCCN)C(=O)N[C@@H](CCC(N)=O)C(=O)N[C@@H](CCCCN)C(=O)N[C@@H](CCCCN)C(=O)N[C@@H](CCC(N)=O)C(=O)N[C@@H](CCCNC(=N)N)C(=O)N[C@@H](CCC(=O)O)C(=O)N[C@@H](CCC(N)=O)C(=O)N[C@@H](C)C(=O)N[C@@H](CCC(=O)O)C(=O)N[C@H](C(=O)N[C@@H](CC(N)=O)C(=O)N[C@@H](CCCCN)C(=O)N[C@@H](CCC(N)=O)C(=O)N[C@H](C(=O)N[C@@H](CC(C)C)C(=O)N[C@@H](C)C(=O)N[C@@H](CCC(N)=O)C(=O)N[C@H](C(N)=O)C(C)C)[C@@H](C)CC)[C@@H](C)O)[C@@H](C)CC)C(C)C)C(C)C) [SEQ ID NO: 84] | – | 1.85 | 61.7
